Data on one substance can be found in patent publication US20020049180.

For series [1], the target named is GST-p53 (1-106) (UniProt P04637).
For series [2], the target named is GST-Chk2(1-222) (UniProt O96017).
Series [3] addresses GST-fusion protein containing amino acids 227-325 of KIAA0175 (UniProt Q14680).
Series [4] concerns the target GST-fusion protein containing amino acids 42-182 of KIAA0175 (UniProt Q14680).
Series [5] deals with KIAA0175 (327-517) with serine 391 mutated to alanine (UniProt Q14680).
The target in series [6] is GST-fusion protein containing amino acids 327-517 of KIAA0175 (UniProt Q14680).
For series [7], the target named is GST-hDM2 (330-491) (UniProt Q00987).

Take Ataxia telangiectasia mutated (ATM): the “in vitro phosphorylation by ATM immunoprecipitates” value is “KIAA0175 (327-517) phosphorylation was comparable to that seen with several known substrates of ATM included in the same assay, GST-p53 (1-106)” in series [1]; “KIAA0175 (327-517) phosphorylation was comparable to that seen with several known substrates of ATM included in the same assay, ... GST-Chk2(1-222)” in series [2]; “amino acids 227-325 with no SQ sites, were not phosphorylated” in series [3]; “amino acid 42-182 (containing S100Q and S^125Q) ... were not phosphorylated” in series [4]; “A fusion including amino acids 327-517 harboring S^391Q was a substrate for ATM” in series [6]; “KIAA0175 (327-517) phosphorylation was comparable to that seen with several known substrates of ATM included in the same assay, ... GST-hDM2 (330-491)” in series [7]. Also, in series [5], the “irradiation induced phosphorylation by ATM” value was “Mutation of serine 391 to alanine completely abolished the irradiation induced phosphorylation by ATM”.
